The DeepSol protein solubility set

assay: soluble on expression in E. coli; label from the status in PepcDB or PDB records

Sequence | soluble on expression in E. coli
MAHHHHHHMNNLTLGDSNICGTFNKLPFIESYYNRKGILLKSYSWLVKNAIGIIVLVHGLSAHLRLQYLKLNVNVVNNDYATLIDADNYYIYEDSWIEEFNKNGYSVYGIDLQGHGESDGLDKLPLHINNFDDYVYDIIDYMRRINNSIVLEKSMQKSTSNKYTIENREELLPMYLVGLSMGGNIVLRTLEILGKSNEINSNLNIKGCISLAGMISVRMVGSIDSIKYKYFYLPVMKIFSRYFPTFRPGKKKFKFEKYPFVNDLLFYDKYRFKGRITNNLAREILVALDNLHNNIDDIPKNIPILFIHSINDCLCWYEGTVSFYNKLQIDNKELYTLEDMDHVISMEPGNENVLKKILEWISNLYVQ | not soluble
MDFASSDGGGRTTTSAKIVVAGGFGVGKTTFVGAVSEINPLRTEAVMTSASAGIDDLTHTGDKTTTTVAMDFGRITLDQDLILYLFGTPGQDRFWFMWDDLVRGAIGAVVLVDTRRLADCFPAVDYFENSGLPFVIALNGFDGHQPYNPEEVREALQIGPDAPIITTDARHRADAKSALITLVEHALMARLRLEHHHHHH | not soluble
TALIASGLAPQPFYFYGFLPRQNKERTQAIEKLAAREETWILYESPHRLKETLKAIIKITGNDRKMVLCRELTKRFEEFLRGTVEDALNWATDEEVRGEFCIIIEGNANP | not soluble
MSLGFIEEIKSALGNYVITEKKDLIPYMNDASYFTGEMPEAVVLPGSAEDVQTIMRLAYKYEKPVVVKGGGSSLTGSSILKESGIVMSMLRMNRILDINLNDKCVTVEPGLRLNDLQLYLDKYGHFYPPDPASSMAATVGGSISTNAGGLRGVAYGVTKDWILGLDVVLADGTMVKFGNKTLKRTLGYDLTSLMIGSEGTLGVITKAYLKIWPKPQKVARLVAFYQDIESAGRAVNELKVSTIPEMAEFLDKISLDSVPEAITYPPGTKYALIIDVSGPPELLGKKKTETEELLKRYAISTKSTTDPAEMEKIYRARKGLYASILKLRKSEKEYIVIGDIVVPVSELPTSLKEIEKKRDEDGVRAAIFGHIGDGNIHANIFADLGDNSAMDKVNRFMMDLAMVAVKHGGSVSAEHGIGIEKKQLLIEEMKYNNNLRTLDIMKAIKQVFDPKNILNRGNIFEEGHHHHHH | soluble
MGSDKIHHHHHHMGIMENPLIKPAALENTHQDGPHPQAEEPYYLPFGDEVSIFTQCHRRHLAVMLKGPTGCGKTRFVEHMAWRMKRPLIIVSCHDDLTAADLVGRFLIRDNATIWQDGPLTRAVRVGAICYLDEVVEARQDAVVVIHPLTDYRRVLPIDKTGELIEATPGFQLVISYNPGYQHVTKDLKPSTRQRFVALDFDFPPPEREAEIVIHESGAQPAVAYDLVALGGRIRGLADRGLAEVPSTRLLVATARLIANGIPPRLACHVALVSPLSDDPALVAAMRDLVDATLLD | not soluble
MRITTKVGDKGSTRLFGGEEVWKDSPIIEANGTLDELTSFIGEAKHYVDEEMKGILEEIQNDIYKIMGEIGSKGKIEGISEERIKWLEGLISRYEEMVNLKSFVLPGGTLESAKLDVCRTIARRAERKVATVLREFGIGKEALVYLNRLSDLLFLLARVIEIEKNKLKEVRS | soluble
MQILKVIGLLMEYPDELLWECKEDALALIRRDAPMLTDFTHNLLNAPLLDKQAEWCEVFDRGRTTSLLLFEHVHAESRDRGQAMVDLLAEYEKVGLQLDCRELPDYLPLYLEYLSVLPDDQAKEGLLNVAPILALLGGRLKQREAPWYALFDALLQLAGSSLSSDSVTKQVNSEERDDTRQALDAVWEEEQVKFIEDNATACDSSPLNQYQRRFSQDVAPQYVDISAGGGK | not soluble
MEERLSTTSSYPSHPGRSVEEDHNTLLASSSISSIIRGTRGHLNNFIESVGNWLVPSSSGRDDDAVSLDSCQSVYSPVRHHINSGTGGGILMEPSSIHVPENYYSVTIGEAQMVVLKRYQNLRLIGSGAQGIVCSAFDTVRNEQVAIKKLSRPFQNVTHAKRAYRELKLMSLVNHKNIIGILNCFTPQKKLDEFNDLYIVMELMDANLCQVIQMDLDHERLSYLLYQMLCGIRHLHSAGIIHRDLKPSNIVVRSDCTLKILDFGLARTAIEAFMMTPYVVTRYYRAPEVILGMGYKENVDVWSIGCIFGELIRGRVLFPGGDHIDQWTRIIEQLGTPDRSFLERLQPTVRNYVENRPRYQATPFEVLFSDNMFPMTADSSRLTGAQARDLLSRMLVIDPERRISVDDALRHPYVNVWFDEIEVYAPPPLPYDHNMDVEQNVDSWREHIFRELTDYARTHDIYS | not soluble
VALSADIVGMHYRYPDHYEVEREKIREYAVAVQNDDAWYFEEDGAAELGYKGLLAPLTFICVFGYKAQAAFFKHANIATAEAQIVQVDQVLKFEKPIVAGDKLYCDVYVDSVREAHGTQIIVTKNIVTNEEGDLVQETYTTLAGRAGEDGEGFSDGAA | soluble
